Measured values published in US20060263345A1, “Butyrylcholinesterase variant polypeptides with increased catalytic efficiency and methods of use” (priority 2003, published 2006).
“Also recorded” adds a separate entry of the source. Where two headings read alike, the source gives them in different places.

Key:
[1] = read-out: Km for cocaine hydrolysis, previously published, cited from earlier work
[2] = Km for cocaine hydrolysis by horse butyrylcholinesterase, isotope tracer assay, Lineweaver-Burk plot; type: biochemical; settings: 2 hour incubation at 37° C.; x intercept = -1/Km
Text: At the conclusion of the isotope tracer assay, an aliquot of the reaction mix is acidified in order to take advantage of the solubility difference between the product and the substrate at pH 3.0. […] Prospect, Ill.) while [3H]-cocaine is not.

cocaine toxicity = settings: rat, infusion of cocaine at 1 mg/kg/min, catecholamine levels standardized; cited from earlier work
Sprague Dawley rats = test: pilot studies, lethal dose of infused cocaine; settings: rat, i.v. infusion
Method: (§1) Briefly, unilateral/bilateral jugular cannulations were performed under isoflurane anesthesia (max. 20 min) on 350 g male :Sprague Dawley®SD® rats (Harlan Sprague Dawley, Inc.) The animals were allowed to recover for 24 hours before studies commenced. […] One minute later, the cannula was connected to an infusion pump (Harvard Apparatus) and cocaine (HCI salt) was infused at 6 mls/hr (2 mg/kg/min) for 15 minutes corresponding to a total dose equal to 30 mg/kg. The time-to-onset for slight convulsions, strong convulsions and death were recorded. […] In a second series of studies, 0.5 mg/kg of the A328W/Y332M/S287G/F227A variant was administered at various time points after initiation of the 30mglkg cocaine infusion and gross observations recorded.

[3] = cited from earlier work
[4] = microtiter isotope tracer [3H]-cocaine hydrolysis assay of immobilized butyrylcholinesterase variants; type: biochemical; settings: compared to human butyrylcholinesterase SEQ ID NO: 44; approximate values
cocaine-induced toxicity = test: in vivo cocaine toxicity, cocaine infusion 30 mg/kg in cannulated rats; settings: rat; for effect of therapeutic treatment on cocaine-induced toxicity: FIG. 9; for effect of pre-treatment on cocaine-induced toxicity: i.v. 0.1-0.5 mg/kg, 1 minute before cocaine 2 mg/kg/min for 15 minutes, Chi-squared test p<0.001, FIG. 8
Method: as §1
The variant was administered at the indicated doses, 1 minute prior to infusion of 30 mg/kg cocaine (2 mg/kg/min for 15 minutes).

horse butyrylcholinesterase
Km ([1]; Gatley 1991): 38 µM
Km ([1]; Xie et al. 1999): 45 ± 5 µM
Km [2]: ~37.6 µM

COC(=O)[C@H]1[C@@H](OC(=O)c2ccccc2)C[C@@H]2CC[C@H]1N2C [cocaine]
LD50 (cocaine toxicity): 10 mg/kg
LD90 (cocaine toxicity): 16 mg/kg
lethal dose of cocaine (Sprague Dawley rats): approximately 25 mg/kg

B1: A328Y (protein, UniProt P06276 29-602, looked up, variant A328Y)
Cholinesterase: EDDIIIATKNGKVRGMNLTVFGGTVTAFLGIPYAQPPLGRLRFKKPQSLTKWSDIWNATKYANSCCQNIDQSFPGFHGSEMWNPNTDLSEDCLYLNVWIPAPKPKNATVLIWIYGGGFQTGTSSLHVYDGKFLARVERVIVVSMNYRVGALGFLALPGNPEAPGNMGLFDQQLALQWVQKNIAAFGGNPKSVTLFGESAGAASVSLHLLSPGSHSLFTRAILQSGSFNAPWAVTSLYEARNRTLNLAKLTGCSRENETEIIKCLRNKDPQEILLNEAFVVPYGTPLSVNFGPTVDGDFLTDMPDILLELGQFKKTQILVGVNKDEGTYFLVYGAPGFSKDNNSIITRKEFQEGLKIFFPGVSEFGKESILFHYTDWVDDQRPENYREALGDVVGDYNFICPALEFTKKFSEWGNNAFFYYFEHRSSKLPWPEWMGVMHGYEIEFVFGLPLERRDNYTKAEEILSRSIVKRWANFAKYGNPNETQNNSTSWPVFKSTEQKYLTLNTESTRIMTKLRAQQCRFWTSFFPKVLEMTGNIDEAEWEWKAGFHRWNNYMMDWKNQFNDYTSKKESCVGL
increase in cocaine hydrolysis activity compared to human butyrylcholinesterase ([3]; Xie et al. 1999): four
cocaine hydrolysis activity (in words) ([3]; recombinantly prepared mutations tested previously): increased cocaine hydrolysis activity

B2: A328W/Y332M/S287G/F227A (protein)
chain: EDDIIIATKNGKVRGMNLTVFGGTVTAFLGIPYAQPPLGRLRFKKPQSLTKWSDIWNATKYANSCCQNIDQSFPGFHGSEMWNPNTDLSEDCLYLNVWIPAPKPKNATVLIWIYGGGFQTGTSSLHVYDGKFLARVERVIVVSMNYRVGALGFLALPGNPEAPGNMGLFDQQLALQWVQKNIAAFGGNPKSVTLFGESAGAASVSLHLLSPGSHSLFTRAILQSGSANAPWAVTSLYEARNRTLNLAKLTGCSRENETEIIKCLRNKDPQEILLNEAFVVPYGTPLGVNFGPTVDGDFLTDMPDILLELGQFKKTQILVGVNKDEGTWFLVMGAPGFSKDNNSIITRKEFQEGLKIFFPGVSEFGKESILFHYTDWVDDQRPENYREALGDVVGDYNFICPALEFTKKFSEWGNNAFFYYFEHRSSKLPWPEWMGVMHGYEIEFVFGLPLERRDNYTKAEEILSRSIVKRWANFAKYGNPNETQNNSTSWPVFKSTEQKYLTLNTESTRIMTKLRAQQCRFWTSFFPKVLEMTGNIDEAEWEWKAGFHRWNNYMMDWKNQFNDYTSKKESCVGL
modifications: Butyrylcholinesterase variant
increase in cocaine hydrolysis activity relative to butyrylcholinesterase [4]: one-hundred
effect of therapeutic treatment on cocaine-induced toxicity (cocaine-induced toxicity; 0.5 mg/kg administered at 8 minutes into the 30 mg/kg cocaine infusion (after first slight convulsions)): full protection
effect of therapeutic treatment on cocaine-induced toxicity (cocaine-induced toxicity; 0.5 mg/kg administered at later time points than 8 minutes, 0.5 mg/kg): decreased in ability to protect
effect of therapeutic treatment on cocaine-induced toxicity (cocaine-induced toxicity; 0.5 mg/kg administered at later time points than 8 minutes, listed as AME-359, 0.5 mg/kg): decreased in ability to protect
effect of pre-treatment on cocaine-induced toxicity (cocaine-induced toxicity): decreasing cocaine-toxicity; also recorded: statistically significant protection against cocaine
effect of pre-treatment on cocaine-induced toxicity (cocaine-induced toxicity; listed as AME-359): statistically significant protection against cocaine
time-of-onset of symptoms associated with cocaine-induced toxicity (cocaine-induced toxicity; pre-treatment 1 minute before 30 mg/kg cocaine infusion, FIG. 12): delaying the time-of-onset of symptoms
